Test results published in the supplement of paper PMC9732359.
± gives the uncertainty stated by the source.

Assay: protein stability index of a GFP-peptide fusion (yeast GPS) (PSI 1-4); higher = more stable; sorted into four equal gates, so the index is relative within each strain
In short: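 Tiled yeast protein peptides of 17 residues were each joined downstream of GFP, on plasmids that also express Cherry. The pooled library was maintained in yeast, and mid-log cultures in leucine-free medium were sorted into four equal gates on the GFP/Cherry ratio. Plasmids from every gate were amplified by PCR and sequenced on Illumina, with barcodes linking reads to strains. The protein stability index of a peptide is its gate-number-weighted read frequency summed over the gates.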

With LQVSEKDLFELERYYKE [ARP7] the protein stability index (doa10∆) was 3.14 ± 0.085, the protein stability index (pdr5∆) was 3.23 ± 0.077 and the protein stability index (san1∆) was 3.48 ± 0.14. For the same sequence, the protein stability index (ubr1∆) was 3.46 ± 0.065.
For LRTVKEVQFGLFSPEEV [RPO21], the protein stability index (doa10∆) was 2.76 ± 0.082, the protein stability index (pdr5∆) was 2.98 ± 0.081 and the protein stability index (san1∆) was 3.02 ± 0.046. The protein stability index (ubr1∆) was 2.95 ± 0.043.
Work on IAGVITRSKRLSQVYPT [CSN12] yielded a protein stability index (doa10∆) of 2.91 ± 0.18, a protein stability index (pdr5∆) of 2.84 ± 0.11 and a protein stability index (san1∆) of 3.11 ± 0.12. For the same sequence, the protein stability index (ubr1∆) was 3.01 ± 0.071.
Work on LVSSGDRFIELISDQLL [YML103C/NUP188] yielded a protein stability index (doa10∆) of 2.76 ± 0.099, a protein stability index (pdr5∆) of 2.5 ± 0.079 and a protein stability index (san1∆) of 2.42 ± 0.057. The protein stability index (ubr1∆) was 3 ± 0.06.
IPHDLNFLQESYEVEHV [TAF14] gave a protein stability index (doa10∆) of 3.16 ± 0.096, a protein stability index (pdr5∆) of 3.33 ± 0.087 and a protein stability index (san1∆) of 2.85 ± 0.07. The protein stability index (ubr1∆) was 3.12 ± 0.056.
For HTSPHQPSDVKPTSHKQ [SIR4], the protein stability index (doa10∆) was 2.76 ± 0.057, the protein stability index (pdr5∆) was 3.08 ± 0.059 and the protein stability index (san1∆) was 2.9 ± 0.047. It also gave a protein stability index (ubr1∆) of 2.52 ± 0.044.
With LASEVGDPALVYKFMSL [ECM29] the protein stability index (doa10∆) was 2.32 ± 0.069, the protein stability index (pdr5∆) was 2.4 ± 0.067 and the protein stability index (san1∆) was 2.34 ± 0.093. The protein stability index (ubr1∆) was 2.05 ± 0.034.
For EMKIGSIESKLEEHKNH [SMC1], the protein stability index (doa10∆) was 3.03 ± 0.15, the protein stability index (pdr5∆) was 3.22 ± 0.16 and the protein stability index (san1∆) was 2.96 ± 0.18. It also gave a protein stability index (ubr1∆) of 3.01 ± 0.099.
Sequence LMYATDWQMMTSPVTGA [CSL4] has a protein stability index (doa10∆) of 2.85 ± 0.15, a protein stability index (pdr5∆) of 3.21 ± 0.2 and a protein stability index (ubr1∆) of 2.79 ± 0.28.
VPLTKRYQHLEKITQIS [PCI8] gave a protein stability index (doa10∆) of 2.39 ± 0.28, a protein stability index (pdr5∆) of 2.22 ± 0.11 and a protein stability index (ubr1∆) of 1.71 ± 0.096.
With YQMHIKTSKDIAVLRSK [FAS1] the protein stability index (doa10∆) was 2.25 ± 0.051, the protein stability index (pdr5∆) was 2.14 ± 0.062 and the protein stability index (san1∆) was 2.3 ± 0.062. It also gave a protein stability index (ubr1∆) of 2.46 ± 0.072.
RNNVMLLIATNLKEYNK [SRB8] gave a protein stability index (doa10∆) of 2.44 ± 0.11, a protein stability index (pdr5∆) of 2.11 ± 0.099 and a protein stability index (san1∆) of 2.74 ± 0.081. It also gave a protein stability index (ubr1∆) of 2.21 ± 0.072.
With VLTNIEVYRTSLNTKKN [SMC3] the protein stability index (doa10∆) was 2.61 ± 0.17, the protein stability index (pdr5∆) was 3.08 ± 0.19 and the protein stability index (ubr1∆) was 2.85 ± 0.12.
NNYKDLLAVAIAASYHY [RPP0] showed a protein stability index (doa10∆) of 1.4 ± 0.065, a protein stability index (pdr5∆) of 1.95 ± 0.12 and a protein stability index (san1∆) of 1.39 ± 0.15. For the same sequence, the protein stability index (ubr1∆) was 1.64 ± 0.068.
With SKVVIDSIIDNIVKLCF [IRR1] the protein stability index (doa10∆) was 2.75 ± 0.079, the protein stability index (pdr5∆) was 2.32 ± 0.034 and the protein stability index (san1∆) was 2.2 ± 0.089. For the same sequence, the protein stability index (ubr1∆) was 2.45 ± 0.026.
Sequence DKHLYHVLYKESKGNAF [RPL19A] has a protein stability index (doa10∆) of 3.56 ± 0.16, a protein stability index (pdr5∆) of 3.39 ± 0.089 and a protein stability index (san1∆) of 2.96 ± 0.11. It also gave a protein stability index (ubr1∆) of 2.77 ± 0.084.
Sequence PEGRLYQVEYAFKATNQ [SCL1] has a protein stability index (doa10∆) of 2.65 ± 0.086, a protein stability index (pdr5∆) of 2.88 ± 0.067 and a protein stability index (san1∆) of 1.78 ± 0.1. It also gave a protein stability index (ubr1∆) of 2.32 ± 0.062.
Work on SLFHIVVDTEETATLIM [SMC3] yielded a protein stability index (doa10∆) of 2.35 ± 0.15, a protein stability index (pdr5∆) of 2.17 ± 0.15 and a protein stability index (san1∆) of 1.68 ± 0.17. The protein stability index (ubr1∆) was 2.23 ± 0.098.
With APGKVELAINLIRFDES [SMC2] the protein stability index (doa10∆) was 3.12 ± 0.16, the protein stability index (pdr5∆) was 3.11 ± 0.11 and the protein stability index (san1∆) was 3.52 ± 0.12. For the same sequence, the protein stability index (ubr1∆) was 2.83 ± 0.08.
Work on YDYYALQLLPLQKAVRG [SNF2] yielded a protein stability index (doa10∆) of 1.63 ± 0.05, a protein stability index (pdr5∆) of 2.24 ± 0.044 and a protein stability index (san1∆) of 1.87 ± 0.09. The protein stability index (ubr1∆) was 1.74 ± 0.035.
In the case of PTIRSNAVLGLGDMAVC [YCS4], the protein stability index (doa10∆) is reported as 1.61 ± 0.088, the protein stability index (pdr5∆) is reported as 1.64 ± 0.069 and the protein stability index (san1∆) is reported as 1.67 ± 0.13. For the same sequence, the protein stability index (ubr1∆) was 1.71 ± 0.099.
With IRSVALNDSNVKSFKPH [RRP42] the protein stability index (doa10∆) was 2.63 ± 0.083, the protein stability index (pdr5∆) was 3.23 ± 0.17 and the protein stability index (san1∆) was 2.62 ± 0.23. The protein stability index (ubr1∆) was 2.98 ± 0.13.
EGKVTKLRRECSNPTCG [RPS31] showed a protein stability index (doa10∆) of 3.31 ± 0.11, a protein stability index (pdr5∆) of 3.16 ± 0.089 and a protein stability index (san1∆) of 3.18 ± 0.078. For the same sequence, the protein stability index (ubr1∆) was 3.1 ± 0.083.
In the case of PDYYVSILSFVDKELLE [RPT2], the protein stability index (doa10∆) is reported as 2.6 ± 0.054, the protein stability index (pdr5∆) is reported as 2.55 ± 0.048 and the protein stability index (san1∆) is reported as 2.39 ± 0.05. For the same sequence, the protein stability index (ubr1∆) was 2.59 ± 0.046.
Work on SGHFSTDSRTGQSTILV [CDC53] yielded a protein stability index (doa10∆) of 2.83 ± 0.047, a protein stability index (pdr5∆) of 2.8 ± 0.052 and a protein stability index (san1∆) of 3.05 ± 0.038. For the same sequence, the protein stability index (ubr1∆) was 3.11 ± 0.042.
AAVVKTSSRQTVFLPMV [RPT5] showed a protein stability index (doa10∆) of 3.02 ± 0.051, a protein stability index (pdr5∆) of 3.15 ± 0.056 and a protein stability index (san1∆) of 2.97 ± 0.051. For the same sequence, the protein stability index (ubr1∆) was 2.87 ± 0.061.
